Experimental data from US20160185850A1 (ESBATECH AN ALCON BIOMEDICAL RESEARCH UNIT, published 2016).
Substitutions are numbered along the chain they refer to. Like-named read-outs stand apart in the source and are kept apart here.

Experiments:
[1] = biological target: T1, recombinant human TNFα (human, UniProt P01375 77-233); test: cell-based or functional assay
[2] = biological target: T1, recombinant human TNFα; test: cell-based or functional assay; remark: listed apart in the source
[3] = biological target: T1, recombinant human TNFα; test: cell-based or functional assay; remark: listed apart in the source
[4] = biological target: T1, recombinant human TNFα; test: surface plasmon resonance (BIACore)
[5] = biological target: T1, recombinant human TNFα; test: ELISA on recombinant human TNFα
[6] = biological target: T1, recombinant human TNFα; test: ELISA dilution series on TNFα after 3 days at 37°C in human serum (column 'serum')
[7] = biological target: T1, recombinant human TNFα; test: ELISA dilution series on TNFα after 3 days at 37°C in human urine (column 'urine')
[8] = biological target: T1, recombinant human TNFα; test: ELISA dilution series on TNFα after 3 days at 37°C in assay buffer TBSTM (positive control)
[9] = biological target: T1, recombinant human TNFα; test: ELISA dilution series on TNFα after 3 days at 37°C in pig vitreous body fluid (column 'vitreous body fluid')
[10] = biological target: T1, recombinant human TNFα; test: ELISA dilution series on TNFα after 3 days at 37°C in pig anterior chamber fluid (column 'anterior chamber fluid')
[11] = biological target: T1, recombinant human TNFα; test: ELISA on recombinant human TNFα; remark: listed apart in the source
[12] = biological target: T1, recombinant human TNFα; test: cell-based or functional assay; remark: listed apart in the source

T1 sequence (P01375 77-233 limits assumed): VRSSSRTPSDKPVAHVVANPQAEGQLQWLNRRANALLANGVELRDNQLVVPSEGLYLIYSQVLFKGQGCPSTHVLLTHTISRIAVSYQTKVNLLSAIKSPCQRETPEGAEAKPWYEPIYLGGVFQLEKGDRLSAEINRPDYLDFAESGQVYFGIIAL

B1: TB-A (scFv)
scFv: DIVMTQSPSSLSASVGDRVTLTCTASQSVSNDVVWYQQRPGKAPKLLIYSAFNRYTGVPSRFSGRGYGTDFTLTISSLQPEDVAVYYCQQDYNSPRTFGQGTKLEVKRGGGGSGGGGSGGGGSGGGGSQVQLVQSGAEVKKPGASVKVSCTASGYTFTHYGMNWVRQAPGKGLEWMGWINTYTGEPTYADKFKDRFTFSLETSASTVYMELTSLTSDDTAVYYCARERGDAMDYWGQGTLVTVSS
notes: also called TB-A scFv; TB-A scFv antibody
Relative potency: EC50X/EC50TB-A, KYM-1 cells [1]: 1 ratio EC50X/EC50TB-A | Relative potency: EC50X/EC50TB-A, L929 cells [1]: 1 ratio EC50X/EC50TB-A | IC50, inhibition of human TNFα-induced cytotoxicity in mouse L929 fibroblasts [2]: 0.0144 µg/mL | IC50, inhibition of human TNFα-induced cytotoxicity in mouse L929 fibroblasts [3]: 0.0297 µg/mL | Kd [4]: 0.8 nM | koff [4]: 0.00044 s⁻¹ | kon [4]: 500000 M⁻¹ s⁻¹ | EC50 (read off the curve) [5]: ~3 nM | Kd [6]: 3.62 nM | Kd [7]: 4.14 nM | Kd [8]: 3.39 nM | Kd [9]: 3.18 nM | Kd [10]: 2.97 nM

B2: TB-A L_R65S (scFv)
scFv: B1 scFv with R65S
notes: also called TB-A L65
binding result [11]: binds

B3: TB-AB (scFv)
scFv (VL of TB-A - (GGGGS)4 linker - VH of TB-B): B1 scFv with T156S, K171Q, F196V, F198L, S199T, L200R, E201D, A204I, S205G
notes: Domain-shuffled variant: VL domain of TB-A with VH domain of TB-B
EC50 (read off the curve) [5]: ~3 nM

B4: TB-BA (scFv)
scFv (VL of TB-B - (GGGGS)4 linker - VH of TB-A): B1 scFv with M4L, L46R, R65S, Y67S, D70E
notes: Domain-shuffled variant: VL domain of TB-B with VH domain of TB-A
EC50 (read off the curve) [5]: ~700 nM

B5: TB-A Fab antibody (Fab, V domains shown)
VH: QVQLVQSGAEVKKPGASVKVSCTASGYTFTHYGMNWVRQAPGKGLEWMGWINTYTGEPTYADKFKDRFTFSLETSASTVYMELTSLTSDDTAVYYCARERGDAMDYWGQGTLVTVSS
VL: DIVMTQSPSSLSASVGDRVTLTCTASQSVSNDVVWYQQRPGKAPKLLIYSAFNRYTGVPSRFSGRGYGTDFTLTISSLQPEDVAVYYCQQDYNSPRTFGQGTKLEVKR
IC50 in the L929 assay, Fab format relative to scFv format of TB-A [12]: ~2 fold (IC50 Fab / IC50 scFv) | IC50, inhibition of human TNFα-induced cytotoxicity in mouse L929 fibroblasts [3]: 0.0659 µg/mL

B6: TB-wt (scFv)
scFv: DIVMTQTPKFLLVSAGDRVTITCTASQSVSNDVVWYQQKPGQSPKMLMYSAFNRYTGVPDRFTGRGYGTDFTFTISSVQAEDLAVYFCQQDYNSPRTFGGGTKLEIKRGGGGSGGGGSGGGGSGGGGSQIQLVQSGPELKKPGETVKISCKASGYTFTHYGMNWVKQAPGKGLKWMGWINTYTGEPTYADDFKEHFAFSLETSASTVFLQINNLKNEDTATYFCARERGDAMDYWGQGTSVTVSS
IC50, inhibition of human TNFα-induced cytotoxicity in mouse L929 fibroblasts [2]: 0.161 µg/mL
